Measured values: paper PMC11852706, “Discovery of three novel neutralizing antibody epitopes on the human astrovirus capsid spike and mechanistic insights into virus neutralization” (Journal of Virology, 2025)

T1: HAstV1 capsid spike, histidine-tagged (Human astrovirus 1 (HAstV1), GenBank …)
T1 construct: also called HAstV1 spike; histidine-tagged HAstV1 spike
T1 chain: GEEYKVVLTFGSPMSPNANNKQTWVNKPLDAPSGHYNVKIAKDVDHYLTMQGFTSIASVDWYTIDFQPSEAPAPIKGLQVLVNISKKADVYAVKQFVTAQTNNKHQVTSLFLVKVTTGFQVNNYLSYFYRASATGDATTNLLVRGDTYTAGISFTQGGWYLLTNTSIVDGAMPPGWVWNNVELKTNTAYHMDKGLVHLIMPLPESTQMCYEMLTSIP

B1: Fab 3H4 (Fab, V domains shown)
VH: QVQLKESGPGLVAPSQSLSISCTVSGFSLTTFGIHWIRQPPGKGLEWLGVIWAAGTTNYNSTLKSRLTITKDNSRSQVFLKMNSLQTYDTAIYYCVREDYDYFFGLDYWGQGTSVTVSS
VL: QAVVTQESALTTSPGETVTLTCRSSTGAVTTSNYASWVQEKPDHLFIGLIGGTNNRAPGVPARFSGSLIGDKAALTITGAQTDDEAIYFCALWFSNHWVFGGGTKLTVL
notes: source: CHO-S, electroporated, purified from supernatant (StrepTrap HP)
B2: Fab 3B4 (Fab, V domains shown)
VH: QVQLHQPGAELVKPGASVNLSCKASGYTFTSYWMHWVKQRPGQGLEWIGEINPSSGRANYNEKFKNKATLTVDKSSITAYMHLSSLTSEDSAVYYCHWDYYAMDYWGQGTSVTVSS
VL: DIVLTQSPATLSVTPGDSVSLSCRASQSISNNLHWYQQKSHESPRLLFKSASQSISGIPSRFSGSGSGTDFTLSINSVETEDFGMYFCQQTNSWPLTFGTGTKLDLK
notes: as for B1

Experiments:
[1] = molecular target: HAstV1 capsid spike, biotinylated (human astrovirus 1 (HAstV1)) (UniProt O12792); experiment: BLI; competition: biotinylated HAstV1 spike (0.5 ug/mL) on streptavidin biosensors, saturated with 150 nM Fab 3H4 or 250 nM Fab 3B4 for 600 s, then dipped into 2 uM FcRn for 300 s; Octet Kinetics Buffer; FcRn shift normalised to FcRn on spike without Fab (100%) and to self-Fab control (0%); triplicate
[2] = molecular target: T1, HAstV1 capsid spike, histidine-tagged; experiment: BLI; histidine-tagged HAstV1 spike (0.5 ug/mL) loaded on Anti-Penta-His (HIS1K) biosensors; Fab in solution (3H4: 2.5, 5, 10, 20 nM; 3B4: 20, 40, 80, 160 nM); Octet Kinetics Buffer (PBS pH 7.4 + 0.1% BSA + 0.02% Tween 20); association 180 s, dissociation 600 s; global 1:1 fit; average of three replicates; settings: both partners purified

Row | Binder | FcRn binding (%) left on spike saturated with the Fab [1] [%] | Kd [2] [nM]
1 | B1 | 4 | 0.49
2 | B2 | 40 | 11.8
